Here are results for two molecules from PMC11826995 (2025).

A value given as a limit tells only on which side of the number the result lay.

The target in one test is T1, HSPB6 phosphopeptide (Homo sapiens, UniProt O14558).
T1 chain: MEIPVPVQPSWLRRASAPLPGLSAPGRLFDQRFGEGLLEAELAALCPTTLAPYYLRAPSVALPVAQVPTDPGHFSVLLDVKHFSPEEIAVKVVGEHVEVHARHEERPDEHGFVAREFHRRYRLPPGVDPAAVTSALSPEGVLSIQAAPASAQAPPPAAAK
The experiment in a line: fluorescence anisotropy.

Test [1] has as its target MED1 DRIP-2 coregulator peptide (Homo sapiens, UniProt Q15648). The test is described as follows: anisotropy.
Test [2] addresses EP300 coregulator peptide (Homo sapiens, UniProt Q09472). The experiment in a line: fluorescence anisotropy. Background: Polarisation of emitted light reports the rotation of a fluorescent probe.

Chain of EP300 coregulator peptide (Q09472 2-2414): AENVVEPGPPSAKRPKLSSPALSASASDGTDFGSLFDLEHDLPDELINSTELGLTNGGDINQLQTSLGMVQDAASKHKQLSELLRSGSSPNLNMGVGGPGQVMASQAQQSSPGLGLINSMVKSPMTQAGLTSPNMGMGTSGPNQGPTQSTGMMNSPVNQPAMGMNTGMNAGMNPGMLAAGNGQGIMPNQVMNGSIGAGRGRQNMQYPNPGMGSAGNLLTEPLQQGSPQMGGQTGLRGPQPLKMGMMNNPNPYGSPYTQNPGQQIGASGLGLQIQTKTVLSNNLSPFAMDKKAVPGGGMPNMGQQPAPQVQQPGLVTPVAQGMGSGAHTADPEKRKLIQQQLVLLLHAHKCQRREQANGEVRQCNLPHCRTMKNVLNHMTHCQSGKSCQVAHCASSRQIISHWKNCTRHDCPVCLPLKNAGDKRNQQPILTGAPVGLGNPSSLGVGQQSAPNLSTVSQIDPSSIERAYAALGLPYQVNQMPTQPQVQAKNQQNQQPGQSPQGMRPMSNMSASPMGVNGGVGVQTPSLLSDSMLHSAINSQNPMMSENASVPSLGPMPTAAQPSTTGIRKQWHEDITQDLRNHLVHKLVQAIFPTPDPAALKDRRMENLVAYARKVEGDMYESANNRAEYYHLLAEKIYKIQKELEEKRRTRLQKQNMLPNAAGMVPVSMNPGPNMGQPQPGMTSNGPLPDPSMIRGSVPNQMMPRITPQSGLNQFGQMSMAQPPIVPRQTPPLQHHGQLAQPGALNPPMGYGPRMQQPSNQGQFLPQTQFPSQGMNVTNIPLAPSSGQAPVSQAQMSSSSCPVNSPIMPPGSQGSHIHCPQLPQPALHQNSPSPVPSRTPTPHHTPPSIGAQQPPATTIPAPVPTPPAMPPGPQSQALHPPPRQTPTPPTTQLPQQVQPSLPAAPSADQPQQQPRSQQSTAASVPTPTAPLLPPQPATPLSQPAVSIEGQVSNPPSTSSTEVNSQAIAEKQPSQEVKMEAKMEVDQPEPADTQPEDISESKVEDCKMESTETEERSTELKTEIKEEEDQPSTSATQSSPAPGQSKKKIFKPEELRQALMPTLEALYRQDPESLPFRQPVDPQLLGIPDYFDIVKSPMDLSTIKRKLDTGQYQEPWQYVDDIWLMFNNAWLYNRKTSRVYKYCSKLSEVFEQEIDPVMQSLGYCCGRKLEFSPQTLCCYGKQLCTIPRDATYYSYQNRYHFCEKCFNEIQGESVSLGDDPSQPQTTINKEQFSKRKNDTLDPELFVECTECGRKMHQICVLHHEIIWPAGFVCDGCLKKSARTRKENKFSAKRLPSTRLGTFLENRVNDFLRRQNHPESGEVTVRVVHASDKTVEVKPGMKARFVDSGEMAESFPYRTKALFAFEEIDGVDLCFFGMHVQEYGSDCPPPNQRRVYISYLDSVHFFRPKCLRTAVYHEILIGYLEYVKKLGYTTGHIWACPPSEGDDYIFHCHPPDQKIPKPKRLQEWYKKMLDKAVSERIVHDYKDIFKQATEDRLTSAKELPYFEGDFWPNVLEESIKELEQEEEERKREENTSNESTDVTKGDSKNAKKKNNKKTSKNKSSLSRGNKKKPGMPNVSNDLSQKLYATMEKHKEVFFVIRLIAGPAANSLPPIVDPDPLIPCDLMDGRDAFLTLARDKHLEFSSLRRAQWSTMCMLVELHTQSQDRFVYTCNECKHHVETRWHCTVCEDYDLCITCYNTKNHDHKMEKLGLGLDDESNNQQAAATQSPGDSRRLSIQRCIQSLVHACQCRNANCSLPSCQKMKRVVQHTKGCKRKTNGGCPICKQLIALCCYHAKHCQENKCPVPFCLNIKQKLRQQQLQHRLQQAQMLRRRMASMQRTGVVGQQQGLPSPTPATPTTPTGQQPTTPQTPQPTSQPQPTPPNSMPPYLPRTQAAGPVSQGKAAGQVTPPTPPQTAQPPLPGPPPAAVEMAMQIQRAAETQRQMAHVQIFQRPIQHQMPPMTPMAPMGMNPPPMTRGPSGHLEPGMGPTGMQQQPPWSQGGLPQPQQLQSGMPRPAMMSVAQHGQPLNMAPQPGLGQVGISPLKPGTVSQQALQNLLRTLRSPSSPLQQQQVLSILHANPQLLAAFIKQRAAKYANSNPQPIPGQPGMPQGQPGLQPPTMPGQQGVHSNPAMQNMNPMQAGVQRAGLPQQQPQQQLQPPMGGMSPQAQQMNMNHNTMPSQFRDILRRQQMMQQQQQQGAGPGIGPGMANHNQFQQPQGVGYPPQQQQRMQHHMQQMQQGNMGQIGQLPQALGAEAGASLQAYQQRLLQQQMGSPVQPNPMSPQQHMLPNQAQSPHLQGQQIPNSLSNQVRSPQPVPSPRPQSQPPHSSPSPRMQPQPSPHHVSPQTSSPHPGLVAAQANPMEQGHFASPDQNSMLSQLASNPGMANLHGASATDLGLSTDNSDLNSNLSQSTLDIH
Chain of MED1 DRIP-2 coregulator peptide (Q15648 whole entry): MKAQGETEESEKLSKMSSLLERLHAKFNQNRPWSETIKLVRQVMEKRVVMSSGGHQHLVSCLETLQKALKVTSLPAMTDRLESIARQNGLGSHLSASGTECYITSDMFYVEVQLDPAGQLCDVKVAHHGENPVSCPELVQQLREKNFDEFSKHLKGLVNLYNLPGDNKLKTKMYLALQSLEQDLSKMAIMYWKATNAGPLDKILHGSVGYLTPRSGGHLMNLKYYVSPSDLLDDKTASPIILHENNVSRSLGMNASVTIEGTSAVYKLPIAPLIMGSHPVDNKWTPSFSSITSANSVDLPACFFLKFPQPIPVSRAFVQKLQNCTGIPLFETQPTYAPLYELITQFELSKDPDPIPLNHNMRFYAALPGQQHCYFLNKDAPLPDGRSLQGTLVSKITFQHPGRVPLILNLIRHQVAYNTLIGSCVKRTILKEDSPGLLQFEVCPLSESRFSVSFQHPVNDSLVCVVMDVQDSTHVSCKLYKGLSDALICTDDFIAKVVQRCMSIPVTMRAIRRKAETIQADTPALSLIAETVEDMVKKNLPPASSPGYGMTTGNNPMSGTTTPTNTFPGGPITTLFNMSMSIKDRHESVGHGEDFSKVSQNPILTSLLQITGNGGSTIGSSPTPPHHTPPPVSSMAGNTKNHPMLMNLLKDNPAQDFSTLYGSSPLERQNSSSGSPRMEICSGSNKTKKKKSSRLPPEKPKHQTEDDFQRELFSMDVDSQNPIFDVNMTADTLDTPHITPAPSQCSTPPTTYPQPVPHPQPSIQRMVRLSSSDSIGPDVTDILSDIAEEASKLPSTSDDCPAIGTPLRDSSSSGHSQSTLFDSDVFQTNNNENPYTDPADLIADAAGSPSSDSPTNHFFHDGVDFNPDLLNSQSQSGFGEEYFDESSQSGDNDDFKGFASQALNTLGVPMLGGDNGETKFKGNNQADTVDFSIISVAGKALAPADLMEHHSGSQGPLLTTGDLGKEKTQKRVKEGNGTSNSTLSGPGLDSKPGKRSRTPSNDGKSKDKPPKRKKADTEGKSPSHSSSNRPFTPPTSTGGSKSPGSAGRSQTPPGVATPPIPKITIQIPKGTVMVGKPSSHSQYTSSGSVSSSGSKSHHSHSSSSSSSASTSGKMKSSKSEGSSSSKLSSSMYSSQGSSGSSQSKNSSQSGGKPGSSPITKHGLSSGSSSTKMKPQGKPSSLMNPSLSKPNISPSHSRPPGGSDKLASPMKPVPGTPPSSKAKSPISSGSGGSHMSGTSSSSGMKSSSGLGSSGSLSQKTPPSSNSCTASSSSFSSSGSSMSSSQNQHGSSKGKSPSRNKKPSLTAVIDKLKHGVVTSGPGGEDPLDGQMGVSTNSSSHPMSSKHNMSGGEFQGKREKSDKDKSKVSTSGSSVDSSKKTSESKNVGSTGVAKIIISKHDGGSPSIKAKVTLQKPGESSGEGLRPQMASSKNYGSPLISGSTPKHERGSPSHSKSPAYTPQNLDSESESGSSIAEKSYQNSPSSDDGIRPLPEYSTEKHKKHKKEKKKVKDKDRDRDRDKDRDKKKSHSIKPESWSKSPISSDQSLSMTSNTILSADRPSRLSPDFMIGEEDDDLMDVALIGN

B1: 14-3-3σ (protein)
chain: MERASLIQKAKLAEQAERYEDMAAFMKGAVEKGEELSCEERNLLSVAYKNVVGGQRAAWRVLSSIEQKSNEEGSEEKGPEVREYREKVETELQGVCDTVLGLLDSHLIKEAGDAESRVFYLKMKGDYYRYLAEVATGDDKKRIIDSARSAYQEAMDISKKEMPPTNPIRLGLALNFSVFHYEIANSPEEAISLAKTTFDEAMADLHTLSEDSYKDSTLIMQLLRDNLTLWTADNAGEEGGEAPQEPQS
modifications: phosphorylated HSPB6 peptide
On to B1, for which, in the test with HSPB6 phosphopeptide, the Kd (usually the free concentration of one partner at which half of the binding sites on the other are occupied at equilibrium, for simple one-to-one binding) was determined as 990 nM.

B2: PPARγ (protein)
chain: MGETLGDSPIDPESDSFTDTLSANISQEMTMVDTEMPFWPTNFGISSVDLSVMEDHSHSFDIKPFTTVDFSSISTPHYEDIPFTRTDPVVADYKYDLKLQEYQSAIKVEPASPPYYSEKTQLYNKPHEEPSNSLMAIECRVCGDKASGFHYGVHACEGCKGFFRRTIRLKLIYDRCDLNCRIHKKSRNKCQYCRFQKCLAVGMSHNAIRFGRMPQAEKEKLLAEISSDIDQLNPESADLRALAKHLYDSYIKSFPLTKAKARAILTGKTTDKSPFVIYDMNSLMMGEDKIKFKHITPLQEQSKEVAIRIFQGCQFRSVEAVQEITEYAKSIPGFVNLDLNDQVTLLKYGVHEIIYTMLASLMNKDGVLISEGQGFMTREFLKSLRKPFGDFMEPKFEFAVKFNALELDDSDLAIFIAVIILSGDRPGLLNVKPIEDIQDNLLQALELQLKLNHPESSQLFAKLLQKMTDLRQIVTEHVQLLQVIKKTETDMSLHPLLQEIYKDLY
As for B2, the Kd in test [1] is 647 nM; in test [2], above 10000 nM.
